Biological target: SARS-CoV-2 Spike ectodomain trimer stabilized with 2 proline mutations (S-2P) (SARS-CoV-2, Wuhan-Hu-1, stabilised)
Experiment: cryo-EM structure

Binder	stoichiometry N
DH1041 Fab (Fab, V domains shown) VH: EVQLVESGGGLVQPGGSLRLSCAASGVTFSSYWMSWVRQAPGKGLEWVANIRQDGSEKYSVDSVKGRFTISRDNAKNSLYLQMNSLRAEDTAVYYCARARRADNSGYYGFHFDCWGQGTLVTVSS VL: QSVLTQPPSVSGAPGQRVTISCTGSSSNIGAGYDVHWYQQLPGTAPKLLIYGNNNRPSGVPDRFSDSKSGTSASLAITRLQAEDEADYYCQSYDSSLSGWVFGGGTKLTVL	3 Fabs per S-2P trimer
DH1047 Fab (Fab, V domains shown) VH: QVQLVQSGAEVKKPGASVQVSCQASANTFTNHYIHWVRQAPGQGLEWMGIIYPTGGNTIYAQGFQGRVTMTRDTSLNTIYLELSSLRSEDTAVYYCARDVRVDDSWSGYDLLSGGTYFDYWGQGTLVTVSS VL: not shown	3 Fabs per S-2P trimer
